From the supplement of paper PMC9170038

System: MS2 coat protein
Experiment: apparent KD of MS2 coat protein; designed switch direction (-1 OFF switch, 1 ON switch): -1; higher = weaker reporter binding
Outline: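 Designed RNA switches with common flanks were transcribed on Illumina chips by stalled E. coli RNA polymerase and titrated with SNAP-549-labelled MS2 coat protein, from 0.7 or 1.5 nM doubling to 3 µM, in Tris-HCl pH 7.5 buffer with KCl, MgCl2, BSA, DTT, tRNA and Tween-20. Steps lasted 0.8–1.5 h (lowest) to 10–20 min (highest). Titrations ran without input, with 200 uM small-molecule ligand, or with an oligonucleotide input. Normalised cluster fluorescence was curve-fitted, and apparent KD is the per-design median over clusters.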

[1] = Eterna round: R95, input ligand: FMN 200 uM
[2] = Eterna round: R95, input ligand: microRNA oligo, concentration not stated
[3] = Eterna round: R95, input ligand: none
[4] = input ligand: microRNA oligo, concentration not stated

Sequence	apparent KD of MS2 coat protein [1] [nM]	apparent KD of MS2 coat protein [2] [nM]	apparent KD of MS2 coat protein [3] [nM]	apparent KD of MS2 coat protein (input ligand: FMN 200 uM) [nM]	apparent KD of MS2 coat protein (input ligand: none) [nM]	apparent KD of MS2 coat protein [4] [nM]
GAUUAUGCGAGCUUUAGGGACAUGAGGAUCACCCAUGUUCGUCUUAUUAGUCUGGGUACGCUAACAUACCUAAAUCU [JMF 43] (puzzle: Sensor v3, turn-off variant 1)	30.1	41.4	28.7			
GAUUAUGCGAGCUUUAGGGACAUGAGGAUCACCCAUGUUCGUCUUAUUGGUCUAGGUGCACUAACAUACCUAAAUCU [JMF 36] (puzzle: Sensor v3, turn-off variant 1)	22.3	33.7	23.6			
GAUUAUGCGAGCUUUAGGGACAUGAGGAUCACCCAUGUUCGUCUUAUUGGUCUGGAUACACUAACAUACCUAAAUCU [JMF 14] (puzzle: Sensor v3, turn-off variant 1)	19.2	27.9	21.2			
GAUUGACAUGAGGAUCACCCAUGUGAGGAUAUCGGCCGGACCUUGUUAGCUUCCAUCGCGAGAAGGUACAUAGG [Exclusion 1 V34] (puzzle: Exclusion 1)		16.9				
GAUUGACAUGAGGAUCACCCAUGUGAGGAUAUCGGCUGGACCGUGUUGGCUUGCUUUCCGAGAAGGCGCAUAGG [Exclusion 1 V50] (puzzle: Exclusion 1)	81.7	36.9	45.9			
GAUUGAGAGCAGGAUAUCAUAGAAAUGUAUGAAUGAGAAGGGCUCACAUGAGGAUCACCCAUGUGGUCCUAGAU [JL Dibiri mod 18] (puzzle: Exclusion 6)		21.9				
GAUUUACAUGAGGAUCACCCAUGUGAGGAUAUAUUGUUAUUUUUAAUAUUUUUUAGUGGUAGAAGGCGCGUGAU [JR_Exc1_Sub016] (Eterna round: R97, puzzle: Exclusion 1)				24.2	26.9	
GCAAAAUAUCAGGAUAUGACUAAUUGCGUUAAGUCAGAAGGGAUAACAUGAGGAUCACCCAUGUGAUAUAGUGU [JR_Ex6_Sub030] (Eterna round: R97, puzzle: Exclusion 6)				237	169	
GCAAGUUUUUUGUUUUUUAACAUGAGGAUCACCCAUGUAUUUUUAUAGUAUGUGUGAAUAAGAUCUCGUGGUCUUAG [JR_SV3TOV1_Sub100] (puzzle: Sensor v3, turn-off variant 1)	73.3	203	77.2			
GCACGCAAAGGAUAUCGGAAAGAAAACAUGAGGAUCACCCAUGUAUAUAUCAAAUGGGUGCGAGAAGGUUGAGUGA [Xeleonge] (puzzle: Exclusion 5)	192	60	94			
GCACGGAGUGUAGGAUAUUAGUGCGAUUAGCACUGAGAAGGACAUGAGGAUCACCCAUGUUCCUCAAUAAAAUACCUUCCGUGC [Eli exng1 - 040] (Eterna round: R96, puzzle: Exclusion NG 1)				13.4	13.7	10
GCACGGAUUGUAGGAUAUCUGUGCGAUUAGCUCAGAGAAGGACACAUGAGGAUCACCCAUGUUACCUCAAUUGGCCUUCCGUGC [Eli exng1 - 031] (Eterna round: R96, puzzle: Exclusion NG 1)				128	116	70.7
GCACGGUUGCUAGGAUAUCCUUGCGAUUAGCAAGGAGAAGGAGCACAUGAGGAUCACCCAUGUACCUCAAUAAUCCUUCCGUGC [Eli exng1 - 028] (Eterna round: R96, puzzle: Exclusion NG 1)				12.9	15.6	13.2
GCACUGCGAGGAUAUACAUGAGGAUCACCCAUGUAUCGGUAGUCAAGGUUAAUUUAAGGUAGAAGGCGCGUAUU [JR_Ex3_Sub006] (Eterna round: R97, puzzle: Exclusion 3)				23.9	22.7	
GCACUGGCAGGAUAUACAUGAGGAUCACCCAUGUGAUCCCUUAGGUACAAAAGUACCAGUAGAAGGGCCUGUGC [Omei Ex3 Model Bachelor's Dilema v50] (Eterna round: R97, puzzle: Exclusion 3)				315	564	
GCAGAAAGUGUAGGAUAUCUAAUAAAGCGGAAACGCAAGACAUGAGGAUCACCCAUGUGUCCGGAAGAGAAGGGCAAAAGCUGC [EXNG2 V2 c] (Eterna round: R96, puzzle: Exclusion NG 2)				26.6	38.2	22.7
GCAGAAUGAGUUAGGAUAUGAUGAUUUUUUUUAUAUCAGAAGGAACUUGAGGAUCACCCAAGUUAAGAUAGGGU [JR_BMEx4_Sub067] (Eterna round: R97, puzzle: Brourd's mod of Exclusion 4)				89.2	138	
GCAGCAACUCUAAUCAACUAAACAUGAGGAUCACCCAUGUCUCAGGAUAUGGUCUGGAUUACAGGCCAGAAGGGAGAAAGCUGC [Eli exng3 - 043] (Eterna round: R96, puzzle: Exclusion NG 3)				16.2	12.3	11.2

Sequence	apparent KD of MS2 coat protein [1] [nM]	apparent KD of MS2 coat protein [2] [nM]	apparent KD of MS2 coat protein [3] [nM]	apparent KD of MS2 coat protein (input ligand: FMN 200 uM) [nM]	apparent KD of MS2 coat protein (input ligand: none) [nM]	apparent KD of MS2 coat protein [4] [nM]
GCAGCAUAGUCGGAAUACGACAUACAUGAGGAUCACCCAUGUCAGGAUAUGGUCUGGAUUACAGGCCAGAAGGGACGAAGCUGC [Eli exng3 - 006] (Eterna round: R96, puzzle: Exclusion NG 3)				18.4	21.5	17.6
GCAGGAUAAGUGAGGAUAUACCUAUGGAUACAUAGGUAGAAGGCACAUGAGGAUCACCCAUGUUCCUUGCCUGC [Fiskers BMX 4 - 67] (puzzle: Brourd's mod of Exclusion 4)		13.2				
GCAGGAUAAGUGAGGAUAUACCUAUGGAUACAUAGGUAGAAGGUACAUGAGGAUCACCCAUGUUCCUUACCUGC [Fiskers BMX 4 - 65] (puzzle: Brourd's mod of Exclusion 4)		11.7				
GCAGGCUUUUGCUCGCCUUACAUGAGGAUCACCCAUGUGGGCCCGGGCCCGGGCCCGCCGGGCCCGGGCCCGGGCCC (Eterna round: R97, puzzle: Sensor, turn-off variant 1)				30.8	32.1	
GCAGGUCAAGGAUAUACAUGAGGAUCACCCAUGUAGAUCAACCAGCGAUAGCUGGAAUGUAGAAGGUGACCUGC [E3/5-C2] (Eterna round: R97, puzzle: Exclusion 3)				67.6	23.7	
GCAUGAAUGUAGGAUAUCUGUAGGGCCCGGACCAGAGAAGGACGCACAUGAGGAUCACCCAUGUCUUGAUGAUC [Eternabot (L1) Solution 15] (Eterna round: R97, puzzle: Exclusion 6)				540	239	
GCAUGGUGAGGAUAUGCAGAAGGGCAACGGUCAUCAUGACUACAUGAGGAUCACCCAUGUAGAAGGCACACAUG [Betearor] (puzzle: Exclusion 2)		42.5				
GCAUGUCAGUAGGAUAUGCAGCACUUGAUACCUGCAGAAGGACUGACAUGAGGAUCACCCAUGUCUCGGGUGCU [EX6 A.10] (Eterna round: R97, puzzle: Exclusion 6)				16.8	149	
GCAUUGAGUGUGAGGAUAUGCUGGUCGUAAGAUCAGCAGAAGGCACAUGAGGAUCACCCAUGUGAAAACAAUGC [Mat - Exclusion 4 - JL Mod - D67] (puzzle: Brourd's mod of Exclusion 4)	125	23	23.4			
GCAUUUGUAGGAUAUACAUGAGGAUCACCCAUGUCGAGACGUGCAAGGCUUCCCAACUGUAGAAGGACGCGGCC [Eternabot (L1) Solution 61] (Eterna round: R97, puzzle: Exclusion 3)				30.8	27.4	
GCCAGAGCAGGAUAUUCAAUAUCACACAUGAGGAUCACCCAUGUCCAGCGAAAGCUGGAGGGAGAAGGGCUCUGGC [Fiskers Ex 5 - 12] (puzzle: Exclusion 5)	18.8	61.4	88.2			
GCCAGAGCAGGAUAUUCAGUAUCACACAUGAGGAUCACCCAUGUCCAGCGAAAGCUGGAGGGAGAAGGGCUCUGGC [Fiskers Ex 5 - 13] (puzzle: Exclusion 5)	40.8	108	298			
GCCAGAGCAGGAUAUUGAUAAAUUCACAUGAGGAUCACCCAUGUCCAGCGAAAGCUGGAACGAGAAGGGCUCUGGC [Mat - Exclusion 5 - Eli mod - D87] (puzzle: Exclusion 5)	11.7	13.3	13.7			
GCCAGUUUUGUGAGGAUAUCGUGCCGUUAGCGGCAUGAGAAGGCACAUGAGGAUCACCCAUGUGUGCAUCCGAG [Eternabot (L1) Solution 91] (Eterna round: R97, puzzle: Brourd's mod of Exclusion 4)				157	28.4	
GCCCAGAGAGGAUAUACAUGAGGAUCACCCAUGUAGAGCUUGUCUGCAGUGAAAGGAUGUAGAAGGCUCGGGCA [Racearza] (Eterna round: R97, puzzle: Exclusion 3)				42.6	26.8	
GCCCAGCUAGGAUAUCGCACUGCAGACAUGAGGAUCACCCAUGUGAUGAGGUCUGAAUCCCGAGAAGGAGCAUGGA [Enlain] (puzzle: Exclusion 5)		15.8				
GCCCGGGCAGGAUAUACAAUGAUCGUGAGAAAUCGUGAUCGACAUGAGGAUCACCCAUGUAGAAGGGCCCGGGC [-34.5, -32.3 kcal, A 28% 2] (Eterna round: R97, puzzle: Exclusion 2)				116	50.5	
